Square brackets hold non-standard residues; d marks the D form. Primed or numbered codes have the meaning given here. Ends that are not written are not given here. FITC′ = fluorescein isothiocyanate label; Cha = N[C@@H](CC1CCCCC1)C(=O)O
Assays:
[1] = target: E. coli 70S ribosome particle (E. coli); test: ITC, 30 °C, E. coli ribosome
[2] = target: E. coli sliding clamp (DnaN protein, β subunit of DNA polymerase III) (E. coli) (UniProt P0A988); test: cell-based or functional assay
[3] = target: E. coli 70S ribosome particle (E. coli); test: ITC, 30 °C, peptide titrated into E. coli 70S ribosome

E. coli sliding clamp (DnaN protein, β subunit of DNA polymerase III) (E. coli), sequence (P0A988 whole entry): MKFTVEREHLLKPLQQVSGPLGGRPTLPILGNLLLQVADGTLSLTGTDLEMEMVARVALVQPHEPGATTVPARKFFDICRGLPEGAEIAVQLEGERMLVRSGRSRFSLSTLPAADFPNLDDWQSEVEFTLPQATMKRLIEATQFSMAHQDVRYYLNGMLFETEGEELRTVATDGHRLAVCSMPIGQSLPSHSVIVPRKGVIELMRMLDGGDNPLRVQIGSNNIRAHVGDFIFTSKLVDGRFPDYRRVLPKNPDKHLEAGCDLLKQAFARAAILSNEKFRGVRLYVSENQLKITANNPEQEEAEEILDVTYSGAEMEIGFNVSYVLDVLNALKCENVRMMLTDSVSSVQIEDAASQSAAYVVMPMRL

{FITC′}-VDKPPYLPRPRPPR[dR]IYN[dR]-NH2 (not fully specified) [CA3-124 (FITC-Onc112), FITC-…rIYNr-NH2]
Kd [1]: 7.7 µM
ΔG [1]: -7.1 kcal/mol
ΔH [1]: -22.6 kcal/mol

{FITC′}-KVDKPPYLPRPRPPR[dR]IYN[dR]GPRQ[Cha]DLF-OH (not fully specified) [CM1-92 (FITC-Onc112-P7), FITC-K-…rIYNrGPRQChaDLF-OH]
MIC (µM), E. coli ATCC 25922, Mueller-Hinton broth [2]: 16 µM

VDKGSYLPRPTPPRPIYNRNGPR[Cha]FQLD-OH [P188 (Py-P7Scr), …haGQLD-OH]
-TΔS [3]: 5.5 kcal/mol
Kd [3]: 0.0758 µM
ΔG [3]: -9.89 kcal/mol
ΔH [3]: -15.4 kcal/mol

Source: patent US20220002344A1
